Measurements as given in patent US20250276075A1, “METHODS OF TREATING AXL-EXPRESSING CANCERS WITH ANTI-AXL ANTIBODIES, ANTIBODY FRAGMENTS AND THEIR IMMUNOCONJUGATES” (BIOATLA, INC., priority 2020, published 2025).
Numbering of substitutions follows the chain as printed. Names and notes keep the numbering of the source.

T1: Axl (Homo sapiens, UniProt P30530)
T1 sequence (P30530 26-451 limits assumed): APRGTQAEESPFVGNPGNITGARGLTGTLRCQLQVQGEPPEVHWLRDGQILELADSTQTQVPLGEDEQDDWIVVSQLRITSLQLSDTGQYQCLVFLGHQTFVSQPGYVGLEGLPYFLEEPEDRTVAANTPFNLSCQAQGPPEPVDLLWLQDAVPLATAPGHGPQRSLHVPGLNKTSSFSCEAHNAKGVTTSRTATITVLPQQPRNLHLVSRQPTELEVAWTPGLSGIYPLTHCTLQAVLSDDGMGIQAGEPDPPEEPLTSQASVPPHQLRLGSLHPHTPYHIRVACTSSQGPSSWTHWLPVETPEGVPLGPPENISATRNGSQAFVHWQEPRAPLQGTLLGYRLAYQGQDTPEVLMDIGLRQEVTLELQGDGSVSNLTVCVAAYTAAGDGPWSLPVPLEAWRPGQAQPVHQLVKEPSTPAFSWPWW

B1: HC-Y104E (antibody, V domains shown)
VH: EVQLVQSGAEVKKPGATVKISCKVSGYSFTGHTMNWIRQPPGKGLEWIGLIKPSNGGTSYNQKFKGRVTISADKSISTAYLQWSSLKASDTAMYYCAHGHYESEFAMDYWGQGTLVTVSS
VL: DIQMTQSPSSLSASVGDRVTITCKASQDVSSAVAWYQQKPGQAPRLLIYWASTRHTGVPSRFSGSGSGTEFTLTISSLQPDDFATYYCQEHFSTPLTFGQGTKVEIK
B2: HC-F105V (antibody, V domains shown)
VH: B1 VH with E104Y, F105V
VL: B1 VL
B3: HC-E102M (antibody, V domains shown)
VH: B1 VH with E102M, E104Y
VL: B1 VL
B4: HC-W110N (antibody, V domains shown)
VH: B1 VH with E104Y, W110N
VL: B1 VL
B5: HC-E102D (antibody, V domains shown)
VH: B1 VH with E102D, E104Y
VL: B1 VL
B6: HC-W110L (antibody, V domains shown)
VH: B1 VH with E104Y, W110L
VL: B1 VL
B7: HC-A106D (antibody, V domains shown)
VH: B1 VH with E104Y, A106D
VL: B1 VL
B8: HC-E102I (antibody, V domains shown)
VH: B1 VH with E102I, E104Y
VL: B1 VL
B9: HC-M107F (antibody, V domains shown)
VH: B1 VH with E104Y, M107F
VL: B1 VL
B10: HC-F105S (antibody, V domains shown)
VH: B1 VH with E104Y, F105S
VL: B1 VL
B11: HC-M107E (antibody, V domains shown)
VH: B1 VH with E104Y, M107E
VL: B1 VL
B12: HC-E102A (antibody, V domains shown)
VH: B1 VH with E102A, E104Y
VL: B1 VL
B13: HC-E102H (antibody, V domains shown)
VH: B1 VH with E102H, E104Y
VL: B1 VL
B14: HC-T033I (antibody, V domains shown)
VH: B1 VH with T33I, E104Y
VL: B1 VL
B15: HC-A106L (antibody, V domains shown)
VH: B1 VH with E104Y, A106L
VL: B1 VL
B16: HC-Y104P (antibody, V domains shown)
VH: B1 VH with E104P
VL: B1 VL
B17: HC-F105T (antibody, V domains shown)
VH: B1 VH with E104Y, F105T
VL: B1 VL
B18: HC-W110R (antibody, V domains shown)
VH: B1 VH with E104Y, W110R
VL: B1 VL
B19: HC-E102G (antibody, V domains shown)
VH: B1 VH with E102G, E104Y
VL: B1 VL
B20: HC-F105N (antibody, V domains shown)
VH: B1 VH with E104Y, F105N
VL: B1 VL
B21: HC-E102F (antibody, V domains shown)
VH: B1 VH with E102F, E104Y
VL: B1 VL
B22: HC-W110D (antibody, V domains shown)
VH: B1 VH with E104Y, W110D
VL: B1 VL
B23: HC-A106G (antibody, V domains shown)
VH: B1 VH with E104Y, A106G
VL: B1 VL
B24: HC-W110T (antibody, V domains shown)
VH: B1 VH with E104Y, W110T
VL: B1 VL
B25: HC-A106Y (antibody, V domains shown)
VH: B1 VH with E104Y, A106Y
VL: B1 VL

target: T1, Axl; assay: Affinity ELISA of CPE mutant antibodies for binding to Axl at pH 6.0 over pH 7.4; settings: heavy chain variable region mutants; 1:3 dilution
Outline: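 Single-point mutant anti-Axl antibody library (CPE) screened by ELISA for binding at pH 6.0 versus pH 7.4, at 1:3 and 1:9 antibody dilutions, in serum with FLAG-tag detection and carbonate (Krebs-Ringer) buffer. Selection criterion: pH 6.0/pH 7.4 binding ratio ≥1.5 at either dilution.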

Row | Molecule | Affinity ELISA CPE mutant ratio (1:3, pH 6.0/7.4)
1 | B1 | 1.321
2 | B2 | 2.429
3 | B3 | 2.079
4 | B4 | 4.304
5 | B5 | 2.674
6 | B6 | 8.220
7 | B7 | 3.389
8 | B8 | 2.016
9 | B9 | 20.579
10 | B10 | 3.898
11 | B11 | 2.164
12 | B12 | 1.538
13 | B13 | 2.076
14 | B14 | 1.594
15 | B15 | 21.538
16 | B16 | 2.535
17 | B17 | 3.463
18 | B18 | 5.991
19 | B19 | 1.798
20 | B20 | 2.364
21 | B21 | 1.879
22 | B22 | 3.716
23 | B23 | 1.519
24 | B24 | 7.469
25 | B25 | 3.293

same assay, conditions: heavy chain variable region mutants; 1:9 dilution

Row | Molecule | Affinity ELISA CPE mutant ratio (1:9, pH 6.0/7.4)
26 | B1 | 1.796
27 | B2 | 2.801
28 | B3 | 2.363
29 | B4 | 0.800
30 | B5 | 2.853
31 | B6 | 0.924
32 | B7 | 2.506
33 | B8 | 1.696
34 | B9 | 1.090
35 | B10 | 4.545
36 | B11 | 1.357
37 | B12 | 1.687
38 | B13 | 2.315
39 | B14 | 1.005
40 | B15 | 1.613
41 | B16 | 2.416
42 | B17 | 4.021
43 | B18 | 1.062
44 | B19 | 2.677
45 | B20 | 2.642
46 | B21 | 1.363
47 | B22 | 1.112
48 | B23 | 2.196
49 | B24 | 1.372
50 | B25 | 3.060

target: Axl (UniProt P30530); assay: ELISA, 1:3 dilution; settings: not given

Row | Molecule | Affinity ELISA CPE mutant ratio (1:3, pH 6.0/7.4)
51 | B1 | 1.32
52 | B2 | 2.43
53 | B3 | 2.08
54 | B4 | 4.3
55 | B5 | 2.67
56 | B6 | 8.22
57 | B7 | 3.39
58 | B8 | 2.02
59 | B9 | 20.6
60 | B10 | 3.9
61 | B11 | 2.16
62 | B12 | 1.54
63 | B13 | 2.08
64 | B14 | 1.59
65 | B15 | 21.5
66 | B16 | 2.54
67 | B17 | 3.46
68 | B18 | 5.99
69 | B19 | 1.8
70 | B20 | 2.36
71 | B21 | 1.88
72 | B22 | 3.72
73 | B23 | 1.52
74 | B24 | 7.47
75 | B25 | 3.29

target: Axl (UniProt P30530); assay: ELISA, 1:9 dilution; settings: not given

Row | Molecule | Affinity ELISA CPE mutant ratio (1:9, pH 6.0/7.4)
76 | B1 | 1.8
77 | B2 | 2.8
78 | B3 | 2.36
79 | B4 | 0.8
80 | B5 | 2.85
81 | B6 | 0.924
82 | B7 | 2.51
83 | B8 | 1.7
84 | B9 | 1.09
85 | B10 | 4.54
86 | B11 | 1.36
87 | B12 | 1.69
88 | B13 | 2.31
89 | B14 | 1
90 | B15 | 1.61
91 | B16 | 2.42
92 | B17 | 4.02
93 | B18 | 1.06
94 | B19 | 2.68
95 | B20 | 2.64
96 | B21 | 1.36
97 | B22 | 1.11
98 | B23 | 2.2
99 | B24 | 1.37
100 | B25 | 3.06
